Entries after “also recorded” stand apart in the source; their conditions may differ. Peptide text beside a SMILES is read from it. * marks the point of attachment. Cbz = O=C(OCc1ccccc1)*
Legend:
3HA-PYL8 [1] = biological target: T1, 3HA-PYL8 (Arabidopsis thaliana, UniProt Q9FGM1); test: In vivo protein degradation assay (cycloheximide time course, immunoblot); conditions: 8-d-old seedlings treated with cycloheximide, 50 μM MG132; oe3HA-PYL8 and oe3HA-PYL8/oeDDA1-GFP
T1 construct: expressed in transfected cells; host or cells: stably transformed Arabidopsis thaliana (Col-0) plants, line oe3HA-PYL8: seedlings or imbibed seeds; seed lines in pyl8-1 background, some crossed with oeDDA1-GFP
T1 sequence (Q9FGM1 1-188): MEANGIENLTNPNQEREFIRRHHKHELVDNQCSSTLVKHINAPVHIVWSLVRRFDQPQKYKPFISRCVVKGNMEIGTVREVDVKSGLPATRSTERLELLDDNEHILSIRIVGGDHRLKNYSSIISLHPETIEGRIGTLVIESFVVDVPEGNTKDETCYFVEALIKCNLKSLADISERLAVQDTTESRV
Protocol: (§1) For protein extraction from seedlings, proteins were extracted in buffer containing 50 mM Tris-HCl pH 7.4, 150 mM NaCl, 10mM MgCl2, 1 mM PMSF, 0.1%NP-40 and 1× complete protease inhibitor (Roche). After centrifugation at 16,000 g at 4° C., the supernatants were collected. This step was repeated twice. For protein extraction from seeds, seeds were frozen in liquid N2 and then homogenized in buffer containing 7 M urea, 2 M thiourea, 4% 3-[(3-cholamidopropyl)dimethylammonio]-1-propanesulfonate (CHAPS; w/v), 18 mM Tris-HCl pH 7.5, 0,2% Triton X100, 1× complete protease inhibitor (Roche). After 10 min incubation at 4° C. with rotation. DTT was added to protein extracts (14 mM final concentration), prior to 20 min incubation at 4° C. Extracts were clarified by centrifugation as afore-mentioned. Protein concentration in final supernatants was determined using a Bio-Rad Protein Assay kit. For in vivo co-immunoprecipitation assays, normalized seedling protein extracts were incubated with 5 μl anti-GFP antibody (Living colors Full length A.V. Polyclonal Antibody, Clontech) for 1 h at 4° C. with rotation. 10 μl of protein A-coupled beads (prewashed twice with 0.1 M Glycine pH 2.7) were added to the samples and incubated for an additional hour at 4° C. with rotation. […]

3HA-PYL8 [2] = test: MG132 treatment of oe3HA-PYL8 seedlings, anti-HA immunoblot; type: in vivo, Arabidopsis; conditions: 9-d-old oe3HA-PYL8 seedlings, 50 μM MG132, 2 h, vs mock
Protocol: To determine whether PYL8 is a substrate of the UPS, we treated Arabidopsis seedlings expressing a 3×HA-tagged PYL8 fusion (oe3HA-PYL8) with proteasome inhibitor MG132. […] Moreover, upon proteasome inhibition several bands of high MW were detected, likely corresponding to ubiquitinated 3HA-PYL8 forms.
as §1, with “kit.” for “kit. For in vivo co-immunoprecipitation assays, normalized seedling protein extracts were incubated with 5 μl anti-GFP antibody (Living colors Full length A.V. Polyclonal Antibody, Clontech) for 1 h at 4° C. with rotation. 10 μl of protein A-coupled beads (prewashed twice with 0.1 M Glycine pH 2.7) were added to the samples and incubated for an additional hour at 4° C. with rotation.”

DDB1a = biological target: T2, DDB1a (Arabidopsis, UniProt Q9M0V3 1-1088); test: yeast two-hybrid (FIG. 4B)
T2 construct: Endogenous protein in the TAP from Arabidopsis cell cultures; also called DDB1 proteins
T2 sequence (looked up): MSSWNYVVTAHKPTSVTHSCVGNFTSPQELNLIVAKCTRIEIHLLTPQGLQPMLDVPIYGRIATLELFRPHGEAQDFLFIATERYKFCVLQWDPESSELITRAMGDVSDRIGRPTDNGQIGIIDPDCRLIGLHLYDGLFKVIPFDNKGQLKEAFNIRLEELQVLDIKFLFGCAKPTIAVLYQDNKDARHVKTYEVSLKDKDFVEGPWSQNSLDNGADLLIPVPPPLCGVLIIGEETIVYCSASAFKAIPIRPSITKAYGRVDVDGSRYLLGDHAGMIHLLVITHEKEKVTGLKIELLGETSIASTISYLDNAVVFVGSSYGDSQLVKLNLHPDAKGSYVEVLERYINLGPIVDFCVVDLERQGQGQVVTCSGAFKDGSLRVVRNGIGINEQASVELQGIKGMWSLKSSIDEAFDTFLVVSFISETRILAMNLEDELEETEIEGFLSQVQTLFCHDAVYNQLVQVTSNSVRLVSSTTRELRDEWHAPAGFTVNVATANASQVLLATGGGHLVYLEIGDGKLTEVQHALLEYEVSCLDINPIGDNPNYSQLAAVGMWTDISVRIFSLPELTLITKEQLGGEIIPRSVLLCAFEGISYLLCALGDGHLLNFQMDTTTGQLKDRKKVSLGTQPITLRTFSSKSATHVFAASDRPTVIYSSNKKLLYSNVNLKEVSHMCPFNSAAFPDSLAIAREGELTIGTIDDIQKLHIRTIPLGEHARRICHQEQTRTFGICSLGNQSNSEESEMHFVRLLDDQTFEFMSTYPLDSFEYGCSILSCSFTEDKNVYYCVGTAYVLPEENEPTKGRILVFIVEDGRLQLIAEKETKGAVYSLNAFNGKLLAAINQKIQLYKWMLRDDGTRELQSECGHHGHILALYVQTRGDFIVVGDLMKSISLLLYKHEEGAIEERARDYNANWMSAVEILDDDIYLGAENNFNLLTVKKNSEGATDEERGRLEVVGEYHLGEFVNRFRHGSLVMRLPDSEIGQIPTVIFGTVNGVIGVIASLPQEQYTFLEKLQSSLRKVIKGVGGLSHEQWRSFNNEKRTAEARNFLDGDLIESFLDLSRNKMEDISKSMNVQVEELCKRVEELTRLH
Protocol: (§2) (A) Y187 yeast cells transformed with pGBKT7-DDA1 were used to screen a cDNA library prepared from Arabidopsis seedlings in the pGADT7 vector and transformed into AH109 cells. Positive clones included truncated versions of ABA receptors PYL4 and PYL9. Yeast clones were grown in selective media containing different concentrations of 3AT (ranging 0.5 to 5 […]). Empty pGADT7 vector was used as negative control. (B-C) DDA1 interaction with full length PYL8 (B), PYL4, PYL5, PYL6 or PYL9 (C) was assessed using yeast two hybrid experiments as in (A). Physical association between PYL8 and other components of the CDD complex (DDB1a, DDB1b, DET1 and COP10) was also tested (B).
(§3) The full length DDA1 cDNA was cloned into the pGBKT7 (Gal4 DNA binding domain, BD; Clontech). […] To confirm protein interactions, plasmids were co-transformed into Saccharomyces cerevisiae AH109 cells, following standard heat-shock protocols (Chini et al., 2007). Successfully transformed colonies were identified on yeast synthetic drop-out lacking Leu and Trp; these colonies were resuspended in water and transferred to selective media lacking Ade, His, Leu and Trp. Plates without His were supplemented with different concentrations of 3-amino 1,2,4-triazole (3AT; ranging 0.5-10 mM). Yeast cells were incubated at 30° C. during 6 days. Empty vectors were co-transformed as negative controls. To test the DDA1 interaction with specific DDB1a domains, DDB1a truncated versions were generated and cloned into the pGADT7 vector as follows: BPA (aa 16-350), BPB (aa 387-704), BPA+BPB (aa 16-704), BPC (aa 704-1002) and BPB+BPC (aa 350-1002). Full length DDB1a was used as a positive control.

DDB1b = biological target: T3, DDB1b (Arabidopsis, UniProt O49552 1-1088); test: yeast two-hybrid (FIG. 4B)
T3 construct: Endogenous protein in the TAP; also called DDB1 proteins
T3 sequence (looked up): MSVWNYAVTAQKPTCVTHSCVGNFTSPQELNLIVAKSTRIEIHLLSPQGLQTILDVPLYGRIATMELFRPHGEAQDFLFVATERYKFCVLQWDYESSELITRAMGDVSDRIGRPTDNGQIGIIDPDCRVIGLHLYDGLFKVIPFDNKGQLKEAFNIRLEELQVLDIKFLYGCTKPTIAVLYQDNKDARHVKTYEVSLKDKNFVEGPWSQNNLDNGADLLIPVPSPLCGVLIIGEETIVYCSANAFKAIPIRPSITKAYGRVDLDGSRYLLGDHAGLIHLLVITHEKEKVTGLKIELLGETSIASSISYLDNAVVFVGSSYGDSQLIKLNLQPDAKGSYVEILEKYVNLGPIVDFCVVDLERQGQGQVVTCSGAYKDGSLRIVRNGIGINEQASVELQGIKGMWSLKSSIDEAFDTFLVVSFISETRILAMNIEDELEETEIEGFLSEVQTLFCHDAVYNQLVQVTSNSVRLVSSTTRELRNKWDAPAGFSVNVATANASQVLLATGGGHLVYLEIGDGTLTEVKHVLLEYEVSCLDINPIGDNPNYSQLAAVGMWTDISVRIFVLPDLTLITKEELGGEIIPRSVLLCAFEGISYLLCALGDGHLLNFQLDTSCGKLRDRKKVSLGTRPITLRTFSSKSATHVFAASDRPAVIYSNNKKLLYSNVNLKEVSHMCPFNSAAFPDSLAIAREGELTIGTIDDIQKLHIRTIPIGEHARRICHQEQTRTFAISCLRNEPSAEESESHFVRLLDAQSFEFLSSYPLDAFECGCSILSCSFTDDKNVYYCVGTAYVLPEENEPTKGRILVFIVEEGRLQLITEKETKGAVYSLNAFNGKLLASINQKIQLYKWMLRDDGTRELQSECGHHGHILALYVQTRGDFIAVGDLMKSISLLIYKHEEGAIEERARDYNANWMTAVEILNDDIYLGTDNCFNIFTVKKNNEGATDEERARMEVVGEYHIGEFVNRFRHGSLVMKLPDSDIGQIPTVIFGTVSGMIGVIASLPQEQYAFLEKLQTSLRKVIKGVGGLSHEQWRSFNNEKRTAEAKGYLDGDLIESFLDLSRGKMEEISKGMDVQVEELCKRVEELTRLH
Protocol: as §2, §3

DET1 = biological target: T4, DET1 (Arabidopsis, UniProt P48732 1-543); test: yeast two-hybrid (FIG. 4B)
T4 construct: Endogenous protein in the TAP; also called DEETIOLATED 1
T4 sequence (looked up): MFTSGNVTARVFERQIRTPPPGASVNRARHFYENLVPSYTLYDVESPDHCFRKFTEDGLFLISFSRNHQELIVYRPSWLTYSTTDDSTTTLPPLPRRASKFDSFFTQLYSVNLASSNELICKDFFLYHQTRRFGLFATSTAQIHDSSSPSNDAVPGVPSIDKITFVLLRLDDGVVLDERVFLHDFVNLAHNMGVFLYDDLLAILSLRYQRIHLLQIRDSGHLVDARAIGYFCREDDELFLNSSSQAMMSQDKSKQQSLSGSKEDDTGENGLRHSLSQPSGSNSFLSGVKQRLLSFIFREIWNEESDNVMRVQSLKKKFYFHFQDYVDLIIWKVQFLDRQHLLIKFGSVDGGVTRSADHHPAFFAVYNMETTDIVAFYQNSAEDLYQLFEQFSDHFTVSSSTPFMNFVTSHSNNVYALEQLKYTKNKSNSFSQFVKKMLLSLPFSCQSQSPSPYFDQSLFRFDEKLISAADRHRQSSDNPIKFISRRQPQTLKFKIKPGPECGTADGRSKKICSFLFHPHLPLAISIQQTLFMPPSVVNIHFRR
Protocol: as §2, §3

Row | Molecule | 3HA-PYL8 destabilization/accumulation (3HA-PYL8 [1]) | 3HA-PYL8 protein accumulation (3HA-PYL8 [2]) | binding result (DDB1a) | binding result (DDB1b) | binding result (DET1)
1 | CC(C)C[C@@H](C=O)NC(=O)[C@H](CC(C)C)NC(=O)[C@H](CC(C)C)NC(=O)OCc1ccccc1 [MG132] (Cbz-Leu-Leu-Leu-aldehyde) | attenuated 3HA-PYL8 destabilization; also recorded: increased accumulation of 3HA-PYL8 | increased 3HA-PYL8 protein accumulation; also recorded: stabilizes 3HA-PYL8 | – | – | –
2 | full length PYL8 (receptor, Arabidopsis, UniProt Q9FGM1 1-188, looked up, Gal4-domain fusion in the yeast two-hybrid assays; also called ABA receptor PYL8) MEANGIENLTNPNQEREFIRRHHKHELVDNQCSSTLVKHINAPVHIVWSLVRRFDQPQKYKPFISRCVVKGNMEIGTVREVDVKSGLPATRSTERLELLDDNEHILSIRIVGGDHRLKNYSSIISLHPETIEGRIGTLVIESFVVDVPEGNTKDETCYFVEALIKCNLKSLADISERLAVQDTTESRV | – | – | no binding | no binding | no binding

Source: patent US20160102316A1, “STRESS TOLERANT PLANTS” (CONSEJO SUPERIOR DE INVESTIGACIONES CIENTIFICAS(CSIC), priority 2013, published 2016)
